Measurements from the DeepSol protein solubility set.

Assay: soluble on expression in E. coli; label from the status in PepcDB or PDB records

For “MGSDKIHHHHHHMSLCLFCDQPFTGDLDMRRLLLPGKSKTSCLCPSCRQLFAQIGTAFCPQCGRQQDSGEICQDCQKWRRIYQGNFLHNQAVYCYNQAFHDLMVRYKRYGDYLLCQVLQELAAPAVQKLAADYYVPVPTSPEHRKKRGYDTVWEIFTPLLPLTPLLAKKAGAGAQGEKDKKARMQAKQNFFLNPEFRGTITGKIILLDDIYTTGRTLYHARDAIEKAFPKCQVESFSISR”, which “soluble on expression in E. coli” value is on record?
The value was “not soluble”.

For “MGSDKIHHHHHHMIDIAEETGYQYEILISTRTSDEENYYYDEIKVVSRNTRKRSEGLARAVKSATGNYAFIFEPSVRYSLTYADLIYGYINLGTSEVLVSNILGFQTDVIKNVGNWRPLTCGEDIDLMARAFDSYGVISYPMGGLTGLDIDDLIYGKWRNRIEKALAMRDLVIAANLKHNNIAEMAESMGIDLPTYEWLISGRILSYLSGIRPYEKNVNNYIFIMERIIESYISQDYRRIDTVSASPYISLSNRTRKYLSSVSDLWTEQNTDNKYPRESV”, which “soluble on expression in E. coli” value is on record?
The value was “not soluble”.

With “MGHHHHHHSHMENKGVVALYHYFYGPALIPYFSHTHNPQRSPDFSERQRRREITLTVDGFVPPSSTEDLGDGFYSYAWTNQQVINPGEYLVCHLEGRDINVINGGFTPRDTAPLYAVQAFQDEETNGSLSFIILCKPKEPYRFI” as the sequence, how does the “soluble on expression in E. coli” value read?
The value was “not soluble”.

Which “soluble on expression in E. coli” value does the source give for “MAAVSIVFEAPDNYGGAPAVSKKPIDFDHLAQQTMGDKDLEIEVLQLFSRSARAALHEMAGADNKTVTATAHRLKGSAQAVGASAVSAAAAAVEEKGNDSALIAKLAAAIVEAENFILKLCR” here?
The value was “not soluble”.

For “MSLAVNLTEKTAEQLPDIDGIALYTAQAGVKKPGHTDLTLIAVAAGSTVGAVFTTNRFCAAPVHIAKSHLFDEDGVRALVINTGNANAGTGAQGRIDALAVCAAAARQIGCKPNQVLPFSTGVILEPLPADKIIAALPKMQPAFWNEAARAIMTTDTVPKAASREGKVGDKHTVRATGIAKGSGMIHPNMATMLGFIATDAKVSQPVLQLMTQEIADETFNTITVDGDTSTNDSFVIIATGKNSQSEIDNIADPRYAQLKELLCSLALELAQAIVRDGEGATKFITVRVENAKTRDEARQAAYAVARSPLVKTAFFASDPNLGRLLAAIGYAGVADLDTDLVEMYLDDILVAEHGGRAASYTEAQGQAVMSKAEITVRIKLHRGQAAATVYTCDLSHGYVSINADYRSEGHHHHHH”, which “soluble on expression in E. coli” value is on record?
Its value is “soluble”.

For “MAHHHHHHMCGVIEGLWTRGGRVFHRYVRPSDPRRISAAAAAVHGITWETVQNCSPWPVVARELVAYMALVGADAPVSASAQLEAAQLGGQRAVHLPPLVAHNASFDARFLEHHLRRCGYQIFWHPRYPLTCTRQWAQVAYPHLANNLDALCAFLSIDWAADRAANGHDALTDATLTALLFLQMCRRWMERFGRGE”, which “soluble on expression in E. coli” value is on record?
Its value is “not soluble”.

Which “soluble on expression in E. coli” value does the source give for “MKKKSNLTLFMKQLIRSLKEEERFSTAHIYQSTLNAFMLFCKTDAIRFNQMERSRLKQFENHLRNKGCTWNTVSTYMRTLRSIYNKAVDDGLAEEKPRLFRHVYTGVKANTKRALDAKDMSKLLSASLPRPLPQSMKESRAWITLMFLLRGMPFVDLAHLRKTDLQDSVISYRRHKTGALLTVEIPPAAMNLIKRYQNTDSASPYLLPILSGNRKSEEEYAEYQHALRKLNYDLKQLAVYCGIKLNVSSYTSRHTWATLAKYCHFSEQLICDALGHSSTKVTETYLKSFKNDELDRANKVIINHINISI” here?
The value was “not soluble”.

Which “soluble on expression in E. coli” value does the source give for “MSLVVVSDVFVSVRGRVMLNVEAMNMTESVGNYVKHRRVPVVLPDAKYTTYFVPAISGESIAHGFQEVLAEVGKKNGLKVCKLCEKGIFLKSTNENVFKESFSSDPPKDDFEFEKTVIENCIVEDVGGFLYAPRAGGNVKRTSNFYTGYMIPVRESIEGAVIEPQLHSRYALGTPFVEGGQGQMIYYVELSSAVYTFSFDLDTRYIGRTTFSYEKAGTEVGKRSERINAALEALKKFLIEFAFGAKKTRFLPVMEWDSLVVAVSDDVWTVPSPYTAGYIDNARKKKEKVNFNTKLFVYPEGGSFEEVVVEAIEEAKERAGKEGHHHHHH” here?
The value was “soluble”.

For “MATIKDVARLAGVSVATVSRVINNSPKASEASRLAVHSAMESLSYHPNANARALAQQTTETVGLVVGDVSDPFFGAMVKAVEQVAYHTGNFLLIGNGYHNEQKERQAIEQLIRHRCAALVVHAKMIPDADLASLMKQMPGMVLINRILPGFENRCIALDDRYGAWLATRHLIQQGHTRIGYLCSNHSISDAEDRLQGYYDALAESGIAANDRLVTFGEPDESGGEQAMTELLGRGRNFTAVACYNDSMAAGAMGVLNDNGIDVPGEISLIGFDDVLVSRYVRPRLTTVRYPIVTMATQAAELALALADNRPLPEITNVFSPTLVRRHSVSTPSLEASHHATSD”, which “soluble on expression in E. coli” value is on record?
The value was “soluble”.

Which “soluble on expression in E. coli” value does the source give for “MFNHVTVLLKETVDGLDIKPDGTYVDCTLGGGGHSSYLLSQLTEGGRLIAFDQDEIAIQNAKEKFSSYGEQFITVKSNFRYLSEKLQELGITEVDGILFDLGVSSPQLDTPERGFSYHHDAPLDMRMDQDAPLTAYDVVNSWSYEQLVRIFFQYGEEKFSKQIARKIEAYRENKAIETTGELVELIKEGIPAPARRTGGHPAKRVFQAIRIAVNDELKVFEEALESAIEMVKPGGRVSVITFHSLEDRICKTTFKRNSTTPQLPPGLPIIPDEFKPKLKLITRKPILPSDIELEENNRARSAKLRIAEKR” here?
The value was “not soluble”.

For “MKYPTIIDSQQLFREPDHPLKAGLDPKCRSTKPLCPDTFAKVMKTIDTFIFDADGVLWLGESVMPGSPRLIDYLVKHNKQIIVLTNNATKSRAVYAKKLAKLGYNSSKMNKNNLVNPAAVVADTLHRAGLDGKRVYLIGEQGLRDEMDELGIEYFGHGPEKKQDEADGSGAFMYDIKLEENVGAVVVGYEKHFDYIKMMKASNYLREEGVLFVATNEDETCPGPNPEVVIPDAGPIVAAIKCASGRDPLTVGKPCTPAFNYIKRKWNINPSRTMMIGDRTNTDVKFGRDHGMKTLLVLSGCHQIEDIIENQMNERDDMVPDYVAPCLGALVPERI”, which “soluble on expression in E. coli” value is on record?
The value was “not soluble”.

For “KALYSKPGSKNGRWNPETHKFCKCGVRIQTSAYTCSKCRNRSGENNSFFNHKHSDITKSKISEKMKGKKPSNIKKISCDGVIFDCAADAARHFKISSGLVTYRVKSDKWNWFYINA”, which “soluble on expression in E. coli” value is on record?
The value was “soluble”.

With “MAKPILYSYWRSSCAWRVRIALALKNIDYEYRPIDLFSEESKNNAEFVKHNPAKKVPTLVINGLSLTESLAIIEYLDEAYPDPPFLPKELDKRSYSRAIALHIVASIQPLQAINIHKMLNEKEPGYGDFWCNHFVNKGFLALEELLKKHSGKYCVGDQLTIADINLPSIIYNAKIYKVDMSKYPTITRINEILAEDFRFKLAHPDNQPDAPNKN” as the sequence, how does the “soluble on expression in E. coli” value read?
The value was “not soluble”.

Which “soluble on expression in E. coli” value does the source give for “MTKPAKIGVLLANLGTPDSPTPKSISRYLWQFLTDPRVVDLPRCKWYPLLKAIILPLRSKRIAKNYQAIWTEQGSPLLAISRQQKDALQAYLDNQNIDTQVEIAMTYGNPSMQSAVKNLLKNQVERIIVLPLYPQYSSSTTGAVFDAFANALKEERGLLPFDFIHSYHIDENYINALADSIKVRLKSDEFLLFSYHGIPLRYEKMGDYYREHCKQTTIAVVNKLGLTENQWRMTFQSRFGREEWLQPYTDKFLESAAAQNIQKIAVICPGFSVDCLETIEEIDEENRENFLNNGGQSYQYIPALNVEHAHIEMMGKLILEKLT” here?
The value was “not soluble”.

With “MIEVISATALATVQDLGRHGSLGYGVGTSGAMDTLSLRLGNLLLGNAEDAAGIEIPLFPFEVRFVEDCTFAITGAACSAKLDGGRLPGNWAAQARKGQVLKLSYPTTGSRAYLCLAGGVDVPPVLGSRSTQLRGAFGGWQGRALQQGDVIPAGAANQQRAGDFGLESAVAGLPLMLDGLPAIRVLPAAEFDCFSVEAQDTFFAGEWKITTQSNRYGYRMEGTPLLAREALEIRSHGIVPGVIQVPHGGQPIVQMRDAQPSGGYPKFATVIEADLWRLGQAPIGSKVRFVQCSYEQAIEALDTNHAFIEDARRLLALRGLQGHRLEHHHHHH” as the sequence, how does the “soluble on expression in E. coli” value read?
Its value is “not soluble”.

For “MGSDKIHHHHHHMSTDFKKRNVFFSPPDMTETETRLVVEAIMSGWITTGPKTKEFEKKISAYVHTDKTVCLNSATAAMELALRLIGVGPEDEVIVPAYTYTASASVTQHVGCHLVMVDSNEENQQMDLQKLAEAITERTKVIVPVDLGGVVCEYDKILEILEQKKGLFRPTNELQKKIGRVIISSDCAHAFGSEWKGKMAGEIGDFSSFSFHAVKNLTTAEGGALTWHLPFGNEPIIMDIDTTIPVFEGETWNEFLYRKCQLFSLHGQNKDALAKTKLGSWEYDVIGPWYKCNMTDIMASLGLAQMERYDTMLQKRQKYVERFNEAFKELNVAVLDHKGAEHCSSHHLYIIRLLGKTREQVNDVITKMAERGIATNVHYKPLPMMTAYKTLGFDIKNFPNAYKMFENTMTLPLNTKMTEEDVEYVIENFVDIVKSL”, which “soluble on expression in E. coli” value is on record?
The value was “not soluble”.

For “MSDPSSINGGIVVAMTGKDCVAIACDLRLGSQSLGVSNKFEKIFHYGHVFLGITGLATDVTTLNEMFRYKTNLYKLKEERAIEPETFTQLVSSSLYERRFGPYFVGPVVAGINSKSGKPFIAGFDLIGCIDEAKDFIVSGTASDQLFGMCESLYEPNLEPEDLFETISQALLNAADRDALSGWGAVVYIIKKDEVVKRYLKMRQD”, which “soluble on expression in E. coli” value is on record?
The value was “soluble”.

Which “soluble on expression in E. coli” value does the source give for “MDFELCPKFEKTFSILGKKWNGLIIDVLLEDGPQRFKNLARRIPKCSDRVLVVRLKELEENGIVSRVTHCDSALIEYRLTTKGQDLRQVMDTVHNWSDKWFSPAES” here?
Its value is “not soluble”.

With “MSDGETAVIQSLAPGPIDGVSYPLKMVYCGQCSMPPEYCDYSGQTDVCRAWATQNAPELLEGLEISDEPAADGDEKKKQKRGGKGSKTGAAAAQAAASGGKKKGGGPQKVTLQREPRGKKSVTVIKGLATFDIDLKVASKLFAQKFACGSSVTGADEIVIQGDVKDDLLDLIPEKWKQVTDEQIDDLGDKKR” as the sequence, how does the “soluble on expression in E. coli” value read?
Its value is “soluble”.

With “MIQPRIRQNPFETYEEVAEGFEDLLAPLELFFDREYQGHLDLGTHGTVYSKGTRDAEAFLRPLWGLGPYVTQNESEYLNDFLTGIIEGTDPESSSYWGKTKDYDQLIVEMAALSTFLLLNKEKTWDQLTKEQQNNLHSWLIQANENIIPPNNWHFFRVLLNLAMKHCEMPYSKEQIAVDLAVIDRFYVGNGWYYDGVETQVDYYVSFAIHYYSLLYCRFAPEDTARVAIMKERATLFAQEFKYWFTQPGEAIPFGRSLTYRFAQVSFFSALVFADVEALPWGEIKGLISRHLHQWMNKDIFTTDGLLSVGYDYQNMVFAEGYNGPGSPYWAFKTFILLAVPKDHPYWQAETQPISFPEKHLPSPESRNYYQVNDAGTHGLMFPAGQFINYQAHAHDKYSKFVYSSHFGFSTIKSDYWYYEGAYDNCLALAEDDHYFRTKGLDDQYEILDDRIIHQWHPWSDVAIKTTIVPLEGQHLRIHEIETQRALVAYEGGFSIPLFDEKVTCVSDQMAEVKNAKGVSKVENINGFSEAAIIRTEPNTNLLYPLTELPYLKANLSKGKHLLISLVTGVLPNEQIEPVKVRLKENQLLVEEKVVILGN” as the sequence, how does the “soluble on expression in E. coli” value read?
Its value is “soluble”.

Which “soluble on expression in E. coli” value does the source give for “SNAMSVQTIERLQDYLLPEWVSIFDIADFSGRMLRIRGDIRPALLRLASRLAELLNESPGPRPWYPHVASHMRRRVNPPPETWLALGPEKRGYKSYAHSGVFIGGRGLSVRFILKDEAIEERKNLGRWMSRSGPAFEQWKKKVGDLRDFGPVHDDPMADPPKVEWDPRVFGERLGSLKSASLDIGFRVTFDTSLAGIVKTIRTFDLLYAEAEKGS” here?
Its value is “soluble”.

Which “soluble on expression in E. coli” value does the source give for “MYHSLFESLCMVPDPRIERKKIYPLDFLLLIVFLSTLSGNTSWYEIEDYAEEYEEELKSLYEMLTGHQLMHTMPSHDTLNRSISLLDVEAFEGAYKRWIEGFISATSGKHICIDGKTMRGVKKLSFDTQSHVVSAFSPQDMCSLAQLYIDRKTNEIPAIHQLLDLLDLNGAVVSIDAIGTQTAIAEQIIDKGGNYVLCVKANQSLSLQEIEAYFCPLFQKHILLDEQTELSHGRIETRRYESILNPLEIEANEVLTRWKGLRSIHKVVRKRRDKKSDKTSEEVAYYISSLTDVSSLKQAIRGHWAIENKLHHCLDVYFGHDASHKRTRNVAQIMDIIQKINLLIIERLKTNMKSSIPRIQKKLARMKPQQLITIQF” here?
Its value is “not soluble”.
